From patent US20200087373A1 (UNIVERSITY OF COPENHAGEN, published 2020)
Ends that are not written are not given here. * marks the point of attachment. C16 diacid = O=C(O)CCCCCCCCCCCCCCC(=O)*

Legend:
human GIP receptor [1] = target: T1, human GIP receptor (human, UniProt P48546 22-466); assay: IC50 with 2% HSA over IC50 with 0.1% casein, 125I-hGIP competition, COS-7/hGIPR
T1 construct: whole, on cells; also called hGIPR
T1 sequence (looked up): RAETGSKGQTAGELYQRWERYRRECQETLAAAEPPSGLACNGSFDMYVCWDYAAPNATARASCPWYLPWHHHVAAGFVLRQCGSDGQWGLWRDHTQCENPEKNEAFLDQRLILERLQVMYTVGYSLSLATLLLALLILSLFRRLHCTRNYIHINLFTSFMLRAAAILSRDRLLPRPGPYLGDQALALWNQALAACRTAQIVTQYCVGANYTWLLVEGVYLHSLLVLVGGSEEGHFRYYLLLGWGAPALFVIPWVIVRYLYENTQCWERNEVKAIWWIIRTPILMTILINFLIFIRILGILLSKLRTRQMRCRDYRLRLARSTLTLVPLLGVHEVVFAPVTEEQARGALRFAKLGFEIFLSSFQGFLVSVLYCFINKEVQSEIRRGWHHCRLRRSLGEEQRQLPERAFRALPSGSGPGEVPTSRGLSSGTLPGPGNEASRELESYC
Protocol: (§1) After incubation, the cells were washed twice in ice-cold binding buffer (+/−2% HSA) and lysed using 200 mM NaOH with 1% SDS for 30 min. Nonspecific binding was determined as the binding of radioactive ligand to untransfected cells.

human GIP receptor [2] = target: T1, human GIP receptor; assay: 125I-hGIP competition binding, COS-7/hGIPR, 2% HSA;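 note: nonspecific binding defined as radioligand binding to untransfected cells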
Protocol: as §1

human GIP receptor [3] = target: T1, human GIP receptor; assay: 125I-hGIP competition binding, COS-7 cells expressing hGIPR;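 note: nonspecific binding taken as radioligand bound by untransfected cells, binding buffer with or without 2% HSA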
Protocol: as §1

human GIP receptor [4] = target: T1, human GIP receptor; assay: cell-based or functional assay
human GIP receptor [5] = target: T1, human GIP receptor; assay: 125I-hGIP competition binding, COS-7/hGIPR, 0.1% casein;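 note: nonspecific binding defined as radioligand binding measured on untransfected cells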
Protocol: as §1

Row | Binder | Fold change HSA (2%)/Casein (0.1%) (human GIP receptor [1]) [fold] | IC50 (human GIP receptor [2]) [µM] | logIC50 (human GIP receptor [2]) [log M] | IC50 (human GIP receptor [3]) [µM] | log IC50 (human GIP receptor [3]) [log M] | cAMP agonism, Emax (human GIP receptor [4]) | cAMP antagonism (human GIP receptor [4]) [nM] | cAMP antagonism, log (human GIP receptor [4]) [log M] | IC50 (human GIP receptor [5]) [µM] | logIC50 (human GIP receptor [5]) [log M]
1 | TFK(C16 diacid)SDYSIAMDKIHQQDFVNWLLAQK-NH2 (N-terminus assumed; SMILES CC[C@H](C)[C@H](NC(=O)[C@H](CO)NC(=O)[C@H](Cc1ccc(O)cc1)NC(=O)[C@H](CC(=O)O)NC(=O)[C@H](CO)NC(=O)[C@H](CCCCNC(=O)CCCCCCCCCCCCCCC(=O)O)NC(=O)[C@H](Cc1ccccc1)NC(=O)[C@@H](N)[C@@H](C)O)C(=O)N[C@@H](C)C(=O)N[C@@H](CCSC)C(=O)N[C@@H](CC(=O)O)C(=O)N[C@@H](CCCCN)C(=O)N[C@H](C(=O)N[C@@H](Cc1c[nH]cn1)C(=O)N[C@@H](CCC(N)=O)C(=O)N[C@@H](CCC(N)=O)C(=O)N[C@@H](CC(=O)O)C(=O)N[C@@H](Cc1ccccc1)C(=O)N[C@H](C(=O)N[C@@H](CC(N)=O)C(=O)N[C@@H](Cc1c[nH]c2ccccc12)C(=O)N[C@@H](CC(C)C)C(=O)N[C@@H](CC(C)C)C(=O)N[C@@H](C)C(=O)N[C@@H](CCC(N)=O)C(=O)N[C@@H](CCCCN)C(N)=O)C(C)C)[C@@H](C)CC) [AT169 [hGIP(5-30)NH2[I7K]-C16diacid/7]] | 5.8 | 0.166 | -6.8 | 0.028 | -7.5 | 0 | 37 | -7.4 | 0.0288 | -7.5
2 | TFIK(C16 diacid)DYSIAMDKIHQQDFVNWLLAQK-NH2 (N-terminus assumed; SMILES CC[C@H](C)[C@H](NC(=O)[C@H](CO)NC(=O)[C@H](Cc1ccc(O)cc1)NC(=O)[C@H](CC(=O)O)NC(=O)[C@H](CCCCNC(=O)CCCCCCCCCCCCCCC(=O)O)NC(=O)[C@@H](NC(=O)[C@H](Cc1ccccc1)NC(=O)[C@@H](N)[C@@H](C)O)[C@@H](C)CC)C(=O)N[C@@H](C)C(=O)N[C@@H](CCSC)C(=O)N[C@@H](CC(=O)O)C(=O)N[C@@H](CCCCN)C(=O)N[C@H](C(=O)N[C@@H](Cc1c[nH]cn1)C(=O)N[C@@H](CCC(N)=O)C(=O)N[C@@H](CCC(N)=O)C(=O)N[C@@H](CC(=O)O)C(=O)N[C@@H](Cc1ccccc1)C(=O)N[C@H](C(=O)N[C@@H](CC(N)=O)C(=O)N[C@@H](Cc1c[nH]c2ccccc12)C(=O)N[C@@H](CC(C)C)C(=O)N[C@@H](CC(C)C)C(=O)N[C@@H](C)C(=O)N[C@@H](CCC(N)=O)C(=O)N[C@@H](CCCCN)C(N)=O)C(C)C)[C@@H](C)CC) [AT170 [hGIP(5-30)NH2[S8K]-C16diacid/8]] | 2.2 | 1.38 | -5.9 | 0.628 | -6.2 | 0 | 507 | -6.3 | 0.631 | -6.2
3 | TFISK(C16 diacid)YSIAMDKIHQQDFVNWLLAQK-NH2 (N-terminus assumed; SMILES CC[C@H](C)[C@H](NC(=O)[C@H](CO)NC(=O)[C@H](Cc1ccc(O)cc1)NC(=O)[C@H](CCCCNC(=O)CCCCCCCCCCCCCCC(=O)O)NC(=O)[C@H](CO)NC(=O)[C@@H](NC(=O)[C@H](Cc1ccccc1)NC(=O)[C@@H](N)[C@@H](C)O)[C@@H](C)CC)C(=O)N[C@@H](C)C(=O)N[C@@H](CCSC)C(=O)N[C@@H](CC(=O)O)C(=O)N[C@@H](CCCCN)C(=O)N[C@H](C(=O)N[C@@H](Cc1c[nH]cn1)C(=O)N[C@@H](CCC(N)=O)C(=O)N[C@@H](CCC(N)=O)C(=O)N[C@@H](CC(=O)O)C(=O)N[C@@H](Cc1ccccc1)C(=O)N[C@H](C(=O)N[C@@H](CC(N)=O)C(=O)N[C@@H](Cc1c[nH]c2ccccc12)C(=O)N[C@@H](CC(C)C)C(=O)N[C@@H](CC(C)C)C(=O)N[C@@H](C)C(=O)N[C@@H](CCC(N)=O)C(=O)N[C@@H](CCCCN)C(N)=O)C(C)C)[C@@H](C)CC) [AT171 [hGIP(5-30)NH2[D9K]-C16diacid/9]] | 8.3 | 0.661 | -6.2 | 0.086 | -7.1 | 0 | 35 | -7.5 | 0.0794 | -7.1
4 | TFISDK(C16 diacid)SIAMDKIHQQDFVNWLLAQK-NH2 (N-terminus assumed; SMILES CC[C@H](C)[C@H](NC(=O)[C@H](CO)NC(=O)[C@H](CCCCNC(=O)CCCCCCCCCCCCCCC(=O)O)NC(=O)[C@H](CC(=O)O)NC(=O)[C@H](CO)NC(=O)[C@@H](NC(=O)[C@H](Cc1ccccc1)NC(=O)[C@@H](N)[C@@H](C)O)[C@@H](C)CC)C(=O)N[C@@H](C)C(=O)N[C@@H](CCSC)C(=O)N[C@@H](CC(=O)O)C(=O)N[C@@H](CCCCN)C(=O)N[C@H](C(=O)N[C@@H](Cc1c[nH]cn1)C(=O)N[C@@H](CCC(N)=O)C(=O)N[C@@H](CCC(N)=O)C(=O)N[C@@H](CC(=O)O)C(=O)N[C@@H](Cc1ccccc1)C(=O)N[C@H](C(=O)N[C@@H](CC(N)=O)C(=O)N[C@@H](Cc1c[nH]c2ccccc12)C(=O)N[C@@H](CC(C)C)C(=O)N[C@@H](CC(C)C)C(=O)N[C@@H](C)C(=O)N[C@@H](CCC(N)=O)C(=O)N[C@@H](CCCCN)C(N)=O)C(C)C)[C@@H](C)CC) [AT172 [hGIP(5-30)NH2[Y10K]-C16diacid/10]] | 3.8 | 0.955 | -6 | 0.252 | -6.6 | 0 | 259 | -6.6 | 0.251 | -6.6
5 | TFISDYK(C16 diacid)IAMDKIHQQDFVNWLLAQK-NH2 (N-terminus assumed; SMILES CC[C@H](C)[C@H](NC(=O)[C@H](CCCCNC(=O)CCCCCCCCCCCCCCC(=O)O)NC(=O)[C@H](Cc1ccc(O)cc1)NC(=O)[C@H](CC(=O)O)NC(=O)[C@H](CO)NC(=O)[C@@H](NC(=O)[C@H](Cc1ccccc1)NC(=O)[C@@H](N)[C@@H](C)O)[C@@H](C)CC)C(=O)N[C@@H](C)C(=O)N[C@@H](CCSC)C(=O)N[C@@H](CC(=O)O)C(=O)N[C@@H](CCCCN)C(=O)N[C@H](C(=O)N[C@@H](Cc1c[nH]cn1)C(=O)N[C@@H](CCC(N)=O)C(=O)N[C@@H](CCC(N)=O)C(=O)N[C@@H](CC(=O)O)C(=O)N[C@@H](Cc1ccccc1)C(=O)N[C@H](C(=O)N[C@@H](CC(N)=O)C(=O)N[C@@H](Cc1c[nH]c2ccccc12)C(=O)N[C@@H](CC(C)C)C(=O)N[C@@H](CC(C)C)C(=O)N[C@@H](C)C(=O)N[C@@H](CCC(N)=O)C(=O)N[C@@H](CCCCN)C(N)=O)C(C)C)[C@@H](C)CC) [AT173 [hGIP(5-30)NH2[S11K]-C16diacid/11]] | 7.4 | 0.0603 | -7.2 | 0.008 | -8.1 | 0 | 10 | -8 | 0.0081 | -8.1
